T1: Peptide 5 (GPLGVRG)
T1 chain: GPLGVRG

B1: rmMMP9 (protein)
chain: FQTFKGLKWDHHNITYWIQNYSEDLPRDMIDDAFARAFAVWGEVAPLTFTRVYGPEADIVIQFGVAEHGDGYPFDGKDGLLAHAFPPGAGVQGDAHFDDDELWSLGKGVVIPTYYGNSNGAPCHFPFTFEGRSYSACTTDGRNDGTPWCSTTADYDKDGKFGFCPSERLYTEHGNGEGKPCVFPFIFEGRSYSACTTKGRSDGYRWCATTANYDQDKLYGFCPTRVDATVVGGNSAGELCVFPFVFLGKQYSSCTSDGRRDGRLWCATTSNFDTDKKWGFCPDQGYSLFLVAAHEFGHALGLDHSSVPEALMYPLYSYLEGFPLNKDDIDGIQYLYGRGSKPDPRPPATTTTEPQPTAPPTMCPTIPPTAYPTVGPTVGPTGAPSPGPTSSPSPGPTGAPSPGPTAPPTAGSSEASTESLSPADNPCNVDVFDAIAEIQGALHFFKDGWYWKFLNHRGSPLQGPFLTARTWPALPATLDSAFEDPQTKRVFFFSGRQMWVYTGKTVLGPRSLDKLGLGPEVTHVSGLLPRRLGKALLFSKGRVWRFDLKSQKVDPQSVIRVDKEFSGVPWNSHDIFQYQDKAYFCHGKFFWRVSFQNEVNKVDHEVNQVDDVGYVTYDLLQCP
B2: rhMMP7 (protein)
chain: YSLFPNSPKWTSKVVTYRIVSYTRDLPHITVDRLVSKALNMWGKEIPLHFRKVVWGTADIMIGFARGAHGDSYPFDGPGNTLAHAFAPGTGLGGDAHFDEDERWTDGSSLGINFLYAATHELGHSLGMGHSSDPNAVMYPTYGNGDPQNFKLSQDDIKGIQKLYGKRSNSRKK
B3: rhMMP2 (protein)
chain: YNFFPRKPKWDKNQITYRIIGYTPDLDPETVDDAFARAFQVWSDVTPLRFSRIHDGEADIMINFGRWEHGDGYPFDGKDGLLAHAFAPGTGVGGDSHFDDDELWTLGEGQVVRVKYGNADGEYCKFPFLFNGKEYNSCTDTGRSDGFLWCSTTYNFEKDGKYGFCPHEALFTMGGNAEGQPCKFPFRFQGTSYDSCTTEGRTDGYRWCGTTEDYDRDKKYGFCPETAMSTVGGNSEGAPCVFPFTFLGNKYESCTSAGRSDGKMWCATTANYDDDRKWGFCPDQGYSLFLVAAHEFGHAMGLEHSQDPGALMAPIYTYTKNFRLSQDDIKGIQELYGASPDIDLGTGPTPTLGPVTPEICKQDIVFDGIAQIRGEIFFFKDRFIWRTVTPRDKPMGPLLVATFWPELPEKIDAVYEAPQEEKAVFFAGNEYWIYSASTLERGYPKPLTSLGLPPDVQRVDAAFNWSKNKKTYIFAGDKFWRYNEVKKKMDPGFPKLIADAWNAIPDNLDAVVDLQGGGHSYFFKGAYYLKLENQSLKSVKFGSIKSDWLGC
B4: rhMMP1 (protein)
chain: FVLTEGNPRWEQTHLTYRIENYTPDLPRADVDHAIEKAFQLWSNVTPLTFTKVSEGQADIMISFVRGDHRDNSPFDGPGGNLAHAFQPGPGIGGDAHFDEDERWTNNFREYNLHRVAAHELGHSLGLSHSTDIGALMYPSYTFSGDVQLAQDDIDGIQAIYGRSQNPVQPIGPQTPKACDSKLTFDAITTIRGEVMFFKDRFYMRTNPFYPEVELNFISVFWPQLPNGLEAAYEFADRDEVRFFKGNKYWAVQGQNVLHGYPKDIYSSFGFPRTVKHIDAALSEENTGKTYFFVANKYWRYDEYKRSMDPGYPKMIAHDFPGIGHKVDAVFMKDGFFYFFHGTRQYKFDPKTKRILTLQKANSWFNCRKN

How the values were obtained:
[1] = target: Control (peptide of Table 12)
Peptide 5 (GPLGVRG) = target: T1, Peptide 5 (GPLGVRG)

| Protein | Specific Activity [1] [pmol/min/µg] | Specific Activity (Peptide 10) [pmol/min/µg] | Specific Activity (Peptide 5 (GPLGVRG)) [pmol/min/µg] | Specific Activity (Peptide 8) [pmol/min/µg] |
| --- | --- | --- | --- | --- |
| B1 | 10 | 111 | 292 | 158 |
| B2 | 10 | 98.4 | 10 | 70.9 |
| B3 | 10 | 163 | 260 | 260 |
| B4 | 10 | 10 | 10 | 10.8 |
